Assay results as given in patent US20240002497A1 (Merck Sharp & Dohme, published 2024).
Positions count from the first letter of the chain named. In names and notes the source's numbering stands.

B1: F010302368 (VHH)
VHH: EVQLVESGGGVVQPGGSLRLSCAASSRAFIRDVFTGWYRQAPGKQRELVARIYNGGNTNYADSVKGRFTISRDNAKKTVYLQMNSLRPEDTALYYCLFSGTISTGREYRSGDYWGQGTLVTVSS
notes: F010302365 background plus R39Q, A63V
B2: F010302365 (VHH)
VHH: B1 VHH with Q40R, V64A
notes: also called F0103464B09(L11V, T24A, T25S, V40A, E44Q, F62S, S68T, M77T, T79Y, R81Q, S82aN, N82bS, K83R, G88A, V89L, N99S)
B3: F010302357 (VHH)
VHH: B1 VHH with A28Q, G55E
notes: F010302365 background plus A28Q, R39Q, G54E, A63V
B4: F010302333 (VHH)
VHH: B1 VHH with A28Q, Q40R, G55E, V64A
notes: F010302365 background plus A28Q, G54E
B5: F010302366 (VHH)
VHH: B1 VHH with V64A
notes: F010302365 background plus R39Q
B6: F010302341 (VHH)
VHH: B1 VHH with A28Q, G55E, V64A
notes: F010302365 background plus A28Q, R39Q, G54E
B7: F0103362B08 (VHH)
VHH: EVQLVESGGGLVQAGGSLRLSCAASVRPFSTSAMGWFRQAPEKEREAVAGILWNGIVTYYADSVKGRFTISRDNAKNEVYLQMNKLKPEDTAVYYCALDRDYGGRSFSAYEYEYWGQGTLVTVSS
notes: entry includes the FLAG-HIS6 tag; also called F0103362B08 (parental)-FLAG-HIS6
B8: F0103275B05 (VHH)
VHH: EVQLVESGGGLVQPGGSLRLSCAASGSIFNINSMAWYRRAPGKQRELVASSTNGGSTNYADSVKGRFTISRDNAKRVYLQMNSLTPEDTAVYYCNALLQPSIYDISRTYWGQGTLVTVSS
notes: also called F0103275B05 (parental)-FLAG-HIS6
B9: F010301637 (VHH)
VHH: B8 VHH with L11V, T85R, V91L
notes: also called F0103275B05(L11V, T83R, V89L)
B10: F010301080 (VHH)
VHH: EVQLVESGGGLVQPGGSLRLSCAASGMLFNANTQGWYRQAPGKQRELVAFIFWGGYVTYNDSVKGRFTISRDNAKRTMYLQMNSLKPEDSAIYYCSLSRYLGQGTLVTVSS
B11: F010301636 (VHH)
VHH: B8 VHH with L11V, R76N, T85R, V91L
notes: also called F0103275B05(L11V, R76N, T83R, V89L)
B12: F010301638 (VHH)
VHH: B8 VHH with L11V, R39Q, R76N, T85R, V91L
notes: also called F0103275B05(L11V, R39Q, R76N, T83R, V89L)
B13: F010301635 (VHH)
VHH: B8 VHH with L11V, R39Q, T85R, V91L
notes: also called F0103275B05(L11V, R39Q, T83R, V89L)
B14: F010301641 (VHH)
VHH: EVQLVESGGGVVQPGGSLRLSCAASGSIFNINSMAWYRRAPGKQRELVASSTNGGSTNYADSVKGRFTISRDNAKNTVYLQMNSLRPEDTALYYCNALLQPSIYDISRTYWGQGTLVTVSS
notes: also called F0103275B05(R76_V78insT)(L11V, R76N, T83R, V89L)

These binders were tested against T1, rhNav1.7α+β1-β2-β3 (rhesus monkey α subunit with human β …) (assay: binding FACS, CHO FlpIn cells).
T1 construct: P2A cleaves it into α, β1, β2, β3; also called rhNav1.7-beta1-beta2-beta3
B1: no binding. B2: no binding. B3: no binding. B4: no binding. B5: no binding. B6: no binding.

These binders were tested against T2, huNav1.7α + β1-β2-β3 (human, UniProt Q15858 1-1988; A5A6L6 19-218; O60939 30-215; Q2KI11 23-215) (assay: binding FACS, CHO FlpIn cells).
T2 construct: Cell line (CHO FlpIn, HEK FlpIn, transient HEK293T) is named under assay; also called huNav1.7-beta1-beta2-beta3; human Nav1.7α with Navβ1, Navβ2 and Navβ3
In short: (§1)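 Flow cytometry read-out of anti-Flag signal on propidium iodide-negative cells measured ISVD binding. Purified FLAG3-tagged ISVD, diluted in PBS with 10% FBS and NaN₃, was applied to the cells for 30 minutes at 4° C.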
For B7, the EC50 was 110 nM.

These binders were tested against T3, huNav1.7α + β1-β2-β3 (human Nav1.7α co-expressed with human Navβ1, Navβ2 and Navβ3 on cells) (human) (assay: binding FACS, CHO FlpIn cells).
T3 construct: also called huNav1.7-beta1-beta2-beta3; CHO FlpIn huNav1.7α + β1-β2-β3
In short: as §1
Binder B8 has an EC50 of 66 nM. In the case of B9, the EC50 is reported as 56 nM.

The binders below were run against T4, huNav1.7α(R277Q) + β1-β2-β3 (human) (assay: binding FACS, CHO FlpIn cells).
T4 construct: polyprotein as encoded; the entry already carries R277Q; also called huNav1.7(R277Q)-beta1-beta2-beta3
Method: (§2) Binding of the ISVDs to cell-expressed Nav1.7α was detected via murine anti-Flag (Sigma, catalog #F1804). Briefly, cells were resuspended in FACS buffer (PBS, 10% FBS, NaN₃) and transferred to a 96-well V-bottom plate at 1×10^5 cells/well. Purified FLAG3-tagged ISVD was diluted in FACS buffer and added to the cells for 30 minutes at 4° C. […] Prior to the read-out, the samples were resuspended in 1 μg/mL propidium iodide (Sigma, catalog #P4170) to exclude dead cells. Between each step, the cells were centrifuged for 5 minutes at 200 grams and washed with 100 μL/well FACS buffer.
(§3) Based on the huNav1.7α model (as described above) the following huNav1.7α-rhNav1.7α polymorphisms can be allocated to the extracellular part of DI: N146S, F276V, R277Q, E281V and V331M. The first of the residues is in DI S1-S2 whereas the latter four residues belong to DI S5-S6. FACS binding studies (as described above) were performed to stable CHO FlpIn cell lines expressing different variants of huNav1.7+β1−β2−β3 each including one of the four possible extracellular huNav1.7α-rhNav1.7α polymorphisms in the DI S5-S6 region: F276V, R277Q, E281V and V331M (Table 23 and FIGS. 22A-22F). Individual polymorphisms were each sufficient to abolish the binding of F0103265B04, F0103362B08, F010301080, and F0103262B06 to huNav1.7α, recapitulating the absence of binding on rhNav1.7α. F0103262CO2, F0103275B05 and F0103387G05 are more subtly affected in terms of EC50 or Bmax by some of the polymorphisms. None of the individual DI S5-S6 polymorphisms by themselves appear to have an impact on the binding of the two rhNav1.7α cross-reactive ISVDs F0103387G04 and F0103464B09. In addition, no effect on binding of the two ISVDs was observed (data not shown) for the three extracellular DIV VSD huNav1.7α-rhNav1.7α polymorphisms Q1530P, H1531Y and E1534D (FIG. 22G).
B7 showed an EC50 of 34 nM. In the case of B10, the EC50 is reported as 3.2 nM.

These binders were tested against T5, rhNav1.7α + β1-β2-β3 (rhesus monkey) (assay: binding FACS, CHO FlpIn cells).
T5 construct: also called rhNav1.7-beta1-beta2-beta3; rhesus Nav1.7α
Method: as §2, §3
B7: no binding. B10: no binding.

What follows are binders tested against T6, huNav1.7α(E281V) + β1-β2-β3 (human) (assay: binding FACS, CHO FlpIn cells).
T6 construct: polyprotein as encoded; the entry already carries E281V; also called huNav1.7(E281V)-beta1-beta2-beta3
Method: as §2, §3
B7 was tested, and the EC50 was 34 nM. With B10 the EC50 was 2.5 nM.

These binders were tested against T7, huNav1.7α(F276V) + β1-β2-β3 (human, UniProt Q15858 1-1988; A5A6L6 19-218; O60939 30-215; Q2KI11 23-215) (assay: binding FACS, CHO FlpIn cells).
T7 construct: polyprotein as encoded, P2A sites liberate the subunits; the entry already carries F276V; also called huNav1.7(F276V)-beta1-beta2-beta3
Method: as §2, §3
Binder B7 has an EC50 of 42 nM. Binder B10 has an EC50 of 2.6 nM.

The binders below were run against T8, huNav1.7α(V331M) + β1-β2-β3 (human) (assay: binding FACS, CHO FlpIn cells).
T8 construct: polyprotein as encoded; the entry already carries V331M; also called huNav1.7(V331M)-beta1-beta2-beta3
Method: as §2, §3
B7: no binding. B10: no binding.

Target: T2, huNav1.7α + β1-β2-β3
Experiment: binding FACS, CHO FlpIn cells
Remark: another data set of the same source
Method: as §2, §3
With B7 the EC50 was 43 nM. Work on B10 yielded an EC50 of 3.4 nM.

The binders below were run against T9, huNav1.7α (HEKa) (human, UniProt Q15858 1-1988) (assay: binding FACS, HEKa cells).
T9 construct: also called HEKa huNav1.7α
In short: as §1
Binder B7 has an EC50 of 19 nM.

The binders below were run against T10, huNav1.7α + β1 (HEKa/β1) (human, UniProt Q15858 1-1988; Q07699 19-218) (assay: binding FACS, HEKa/β1 cells).
T10 construct: also called HEKa/β1 huNav1.7α
In short: as §1
With B7 the EC50 was 34 nM.

What follows are binders tested against T11, huNav1.7α on HEK cells (without β subunits) (human, UniProt Q15858 1-1988) (assay: binding FACS, HEK cells (HEKa)).
T11 construct: also called HEKa huNav1.7α
B8 gave an EC50 of 14 nM. In the case of B9, the EC50 is reported as 13 nM. With B11 the EC50 was 17 nM. Work on B12 yielded an EC50 of 23 nM. In the case of B13, the EC50 is reported as 19 nM. With B14 the EC50 was 380 nM.

The binders below were run against T12, huNav157 chimera 14 on cells (without β subunits) (human (huNav1.7α/huNav1.5α chimera)) (assay: binding FACS, HEK FlpIn cells).
T12 construct: also called HEK FlpIn Nav157ch14
B8 showed an EC50 of 12 nM. B9 was tested, and the EC50 was 11 nM. B11 was tested, and the EC50 was 14 nM. Work on B12 yielded an EC50 of 18 nM. B13 was tested, and the EC50 was 16 nM. B14 was tested, and the EC50 was 310 nM.

These binders were tested against T13, huNav157 chimera 14 + β1-β2-β3 on cells (human (huNav1.7α/huNav1.5α chimera)) (assay: binding FACS, HEK FlpIn cells).
T13 construct: Extracellular loops and transmembrane helices of Nav1.7α, intracellular loops of Nav1.5α; P2A linkers are cleaved co-translationally; also called HEK FlpIn Nav157ch14-β1-β2-β3; huNav157 chimera 14-beta1-beta2-beta3
B8 showed an EC50 of 33 nM. Work on B9 yielded an EC50 of 29 nM. In the case of B11, the EC50 is reported as 45 nM. B12 gave an EC50 of 50 nM. For B13, the EC50 was 35 nM. Binder B14 has an EC50 of 350 nM.

These binders were tested against huNav1.7α + β1 on HEK cells (human, UniProt Q15858 1-1988; Q07699 19-218) (assay: binding FACS, HEK cells (HEKa/b1)).
B8 showed an EC50 of 39 nM. For B9, the EC50 was 30 nM. Binder B11 has an EC50 of 30 nM. Binder B12 has an EC50 of 32 nM. B13 was tested, and the EC50 was 31 nM. In the case of B14, the EC50 is reported as 230 nM.

The binders below were run against T2, huNav1.7α + β1-β2-β3 (assay: competition FACS, HEK FlpIn cells, vs EC30 of CMYC3-F0103265B04).
Method: Competition FACS assays were performed with CMYC3-tagged ISVD F0103265B04 or F0103275B05(N93R) affinity maturation variant on a HEK FlpIn huNav1.7α+β1−β2−β3 transgenic cell line. Briefly, cells were resuspended in FACS buffer (PBS, 2% FBS, 0.05% NaN₃) and 1×10⁵ cells/well were transferred to 96-well V-bottom plates. Cells were subsequently resuspended in a 100 μL mixture of purified ISVD (dilution series) and CMYC3-tagged ISVD F0103265B04 (at a concentration equivalent to EC30) followed by incubation for 1.5 hours at 4° C. […] Between each step, the cells were centrifuged for 5 minutes at 200 g and washed with 100 μL/well FACS buffer. Prior to the read-out, the samples were resuspended in 5 nM TOPRO3 (Molecular probes, catalog #T3605) to exclude dead cells. F0103262CO2, F0103262B06, F0103265A11, F0103265B04, F0103275B05, F0103362B08, and F0103387G04 all compete with F0103265B04 for binding to huNav1.7α, in contrast to an irrelevant control ISVD (IRR) (see Table 21 and FIG. 15A, FIG. 15B, FIG. 15C, and FIG. 15D).
B7 gave an IC50 of 150 nM.
